Test results taken from patent publication US20100297135A1.

What was measured:
[1] = molecular target: human GM-CSF mutant M5 (I101 to V117 replaced by murine sequence) (human); assay: semi-quantitative ELISA; GM-CSF polypeptide coated in 2-fold dilutions (x axis = coating concentration), BD antibody fixed at 310 ng/ml, rabbit anti-rat IgG-HRP, absorbance 450 nm
[2] = molecular target: human GM-CSF mutant M5b (S96 to N110 replaced by murine sequence) (human); assay: as above
[3] = molecular target: wild type human GM-CSF (human) (UniProt P04141); assay: SPR (Biacore), human GM-CSF coated on CM5 chip, antibody injected
Chain of wild type human GM-CSF (human) (P04141 other isoform, or with tags, fused parts or gaps limits assumed): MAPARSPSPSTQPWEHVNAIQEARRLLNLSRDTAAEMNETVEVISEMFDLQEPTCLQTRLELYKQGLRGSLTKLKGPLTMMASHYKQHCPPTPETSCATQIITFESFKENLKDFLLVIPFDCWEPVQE

Chain of human GM-CSF mutant M5 (I101 to V117 replaced by murine sequence) (human) (P04141 other isoform, or with tags, fused parts or gaps mutant): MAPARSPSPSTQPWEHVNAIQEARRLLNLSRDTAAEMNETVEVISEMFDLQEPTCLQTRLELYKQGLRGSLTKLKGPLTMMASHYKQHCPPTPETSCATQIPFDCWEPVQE
Chain of human GM-CSF mutant M5b (S96 to N110 replaced by murine sequence) (human) (P04141 other isoform, or with tags, fused parts or gaps mutant): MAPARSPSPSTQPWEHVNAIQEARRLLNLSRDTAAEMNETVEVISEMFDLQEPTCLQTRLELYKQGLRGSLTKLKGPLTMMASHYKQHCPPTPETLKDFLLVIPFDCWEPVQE

EC50 (read off the curve) [1]: 300 µg/mL
EC50 (read off the curve) [2]: 400 µg/mL
Ka [3]: > 5.2e+09 M⁻¹
Kd [3]: < 0.19 nM
koff [3]: < 1e-05 s⁻¹
kon [3]: 52000 M⁻¹ s⁻¹
Substance: commercially available rat anti-human GM-CSF antibody from BD Biosciences (Cat No. 554501)
